US20080064631A1 (published 2008)

T1: proteinase 3 and neutrophil elastase (PR1) peptide on HLA-A*02:01 (human)
T1 peptide: VLQELNVTV


Target: T1, proteinase 3 and neutrophil elastase …
Test: multimer staining
Description: Briefly, from PBMC that were derived from a healthy HLA-A2+ donor, the inventor elicited bulk PR1-CTL cell lines after 4 to 6 weeks of weekly stimulations with the PR1 peptide+low dose IL-2 and IL-7 in vitro, as outlined in FIG. 1. These CTL were subsequently placed into limiting dilution culture and after an additional 14 to 20 days. The cells were expanded with anti-CD3/anti-CD28 beads+IL-2+feeder cells+IL-15 to sufficient numbers and were then tested. The PR1-CTLs were stained with PR1-CTL tetramer to confirm specificity (FIG. 2). Unique cDNA sequences from the CDR3-α and CDR3-β regions from two different PR1-specific CTL clones that were derived from an HLA-A2+ healthy individual were obtained. The inventor reported that one PR1-CTL clone (F4) bears a relatively high avidity TCR for the PR1/HLA-A2 ligand, while the other CTL clone (B12) bears a relatively low avidity TCR. These conclusions are supported with PR1/HLA-A2 tetramer binding data and with cytotoxicity assays that show F4 to have a higher tetramer staining fluorescence intensity and a lower threshold of activation than the B12 clone, respectively. TCR-αβ CDR3 nucleic acid sequence data is provided showing clonality at the molecular level.

| binding result | Binder |
| --- | --- |
| recognises | High avidity PR1-CTL clone F4 TCR (TCR, V domains shown) Valpha: GQNIDQPTEMTATEGAIVQINCTYQTSGFNGLFWYQQHAGEAPTFLSYNVLDGLEEKGRFSSFLSRSKGYSYLLLKELQMKDSASYLCAVSRDSGNTPLVFGKGTRLSVIA Vbeta: DSGVTQTPKHLITATGQRVTLRCSPRSGDLSVYWYQQSLDQGLQFLIQYYNGEERAKGNILERFSAQQFPDLHSELNLSSLELGDSALYFCASSPSGTGNIQYFGAGTRLSVL |
| recognises | Low avidity PR1-CTL clone B12 TCR (TCR, V domains shown) Valpha: AQSVTQPDIHITVSEGASLELRCNYSYGATPYLFWYVQSPGQGLQLLLKYFSGDTLVQGIKGFEAEFKRSQSSFNLRKPSVHWSDAAEYFCAVGGGARLMFGDGTQLVVKP Vbeta: KAGVTQTPRYLIKTRGQQVTLSCSPISGHRSVSWYQQTPGQGLQFLSEYFSETQRNKGNFPGRFSGRQFSNPRSEMNVSTLELGDSALYLCASSGEAFYEQYFGPGTRLTVT |
